In publication PMC5569669, “Rhenium and Technetium-oxo Complexes with Thioamide Derivatives of Pyridylhydrazine Bifunctional Chelators Conjugated to the Tumour Targeting Peptides Octreotate and Cyclic-RGDfK” (Inorganic Chemistry, 2017):

Assay type: in vitro ADME, human
Protocol: Human blood samples were centrifuged with a Heraeus Labofuge 6000 centrifuge at 3000g for 10 min (Heraeus, Hanau, Germany). Radioactivity readings for serum stability studies were taken with a Capintec CRC-35R dose calibrator (Capintec, New Jersey, USA) and were measured in MBq. Centrifugation of radioactive compounds was undertaken using an Eppendorf 5415 D centrifuge (Eppendorf, Hamburg, Germany). Partition coefficient data were collected with a PerkinElmer, Wizard 1470 (PerkinElmer, Massachusetts, USA) automatic γ counter, which measured the radioactive decay of each sample in counts per minute (cpm).
For serum stability studies, blood from a healthy person (20 mL) was centrifuged (10 min, 3000 rpm) to separate blood plasma and red blood cells. The plasma was transferred to a separate vial and the red blood cells were discarded. An aliquot of plasma (0.6 mL) was added to labeled compound, [^99mTc(HL^3(Tyr^3-Oct))2]^+ (0.15 mL), the radioactivity was monitored and the mixture was then incubated at 37 °C. […] The radioactivity of the supernatant and pellet was recorded. The supernatant (20 μL) was analyzed by analytical RP-HPLC (Column 7, System C) for UV and radioactivity analysis and the pellet were washed with acetonitrile (3 × 0.1 mL), and radioactivity levels were again recorded (radioactivity levels of the pellet were negligible).

With `C[C@@H](O)[C@H](NC(=O)[C@@H]1CSSC[C@H](NC(=O)[C@@H](Cc2ccccc2)NC(=O)c2ccc(NNC(=S)Nc3ccccc3)nc2)C(=O)N[C@@H](Cc2ccc(O)cc2)C(=O)N[C@H](Cc2c[nH]c3ccccc23)C(=O)N[C@@H](CCCCN)C(=O)N[C@@H]([C@@H](C)O)C(=O)N1)C(=O)O` (99mTc complex, metal not drawn) [[^99mTcO(HL^3(Tyr^3-Oct))2]^+] the “degradation products in human plasma” value was under 5% and the “radioactivity levels of the pellet (precipitated serum proteins)” value was “negligible”.
